The values below come from patent US20190256584A1 (University of California, published 2019).

Residue numbers refer to the chain shown, from its start.

Sequences and labels used below:
T1: Botulinum neurotoxin serotype C (BoNT/C) (Clostridium botulinum, UniProt P18640 2-1291)
T1 sequence: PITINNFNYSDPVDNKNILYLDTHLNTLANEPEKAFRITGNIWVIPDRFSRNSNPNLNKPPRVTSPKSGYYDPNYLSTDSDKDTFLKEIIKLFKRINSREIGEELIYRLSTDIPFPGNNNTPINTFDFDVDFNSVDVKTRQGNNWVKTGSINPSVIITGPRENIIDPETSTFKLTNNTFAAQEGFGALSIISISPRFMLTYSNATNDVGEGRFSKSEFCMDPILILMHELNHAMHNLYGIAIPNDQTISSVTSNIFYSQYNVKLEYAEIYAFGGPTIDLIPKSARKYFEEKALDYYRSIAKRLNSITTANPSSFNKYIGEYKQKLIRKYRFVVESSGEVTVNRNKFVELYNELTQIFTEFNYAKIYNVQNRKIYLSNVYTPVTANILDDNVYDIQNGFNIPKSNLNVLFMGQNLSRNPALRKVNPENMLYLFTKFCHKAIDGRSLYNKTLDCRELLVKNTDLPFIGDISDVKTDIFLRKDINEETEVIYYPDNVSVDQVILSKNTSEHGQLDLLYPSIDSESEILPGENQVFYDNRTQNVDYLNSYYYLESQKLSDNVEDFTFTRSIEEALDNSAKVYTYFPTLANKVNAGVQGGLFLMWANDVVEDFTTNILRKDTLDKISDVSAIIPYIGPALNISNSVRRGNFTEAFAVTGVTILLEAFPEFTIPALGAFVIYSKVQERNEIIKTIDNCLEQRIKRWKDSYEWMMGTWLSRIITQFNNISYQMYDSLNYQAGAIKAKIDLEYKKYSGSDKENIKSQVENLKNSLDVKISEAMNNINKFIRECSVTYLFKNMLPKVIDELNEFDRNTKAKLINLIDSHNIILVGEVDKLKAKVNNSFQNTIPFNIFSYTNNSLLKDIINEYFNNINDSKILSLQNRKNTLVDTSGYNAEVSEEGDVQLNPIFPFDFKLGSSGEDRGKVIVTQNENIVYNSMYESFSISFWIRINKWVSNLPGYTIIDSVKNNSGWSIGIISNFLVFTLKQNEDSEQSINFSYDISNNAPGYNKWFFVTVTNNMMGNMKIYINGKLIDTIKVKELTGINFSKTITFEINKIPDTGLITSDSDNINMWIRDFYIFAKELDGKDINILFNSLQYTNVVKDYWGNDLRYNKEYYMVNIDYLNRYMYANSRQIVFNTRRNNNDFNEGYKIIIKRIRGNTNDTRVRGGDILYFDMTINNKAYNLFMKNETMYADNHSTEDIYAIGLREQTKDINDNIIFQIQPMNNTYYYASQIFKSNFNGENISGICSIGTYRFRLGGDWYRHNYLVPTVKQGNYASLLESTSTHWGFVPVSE

B1: 4C10.5 IgG (antibody, V domains shown)
VH: QVQLVQSGGGVVQPGRSLRLSCGASRFTFSGFDMHWVRQAPGKGLEWVARISHDGSMADYADSLRGRFTISRDNSKNTLYLQMNSLRVEDTALYYCAKDRWRSGSYPAFEIWGQGTMVTVSS
VL: EIVLTQSPSFLSAFVGDRITITCRASQGISNRLAWYQQKPGKAPNLLIHPASTLQSGVPSRFSGSGSGTDFTLTISSLQPEDFATYYCQQANSFPLTFGGGTKVEIKR
B2: 4C10.15 IgG (antibody, V domains shown)
VH: B1 VH
VL: B1 VL with Q27K, S30G
B3: 4C10.23 IgG (antibody, V domains shown)
VH: B1 VH with R26G, T28K
VL: B1 VL with Q27K, S30G
B4: 4C10.22 IgG (antibody, V domains shown)
VH: B1 VH with R26G, T28K, R100P
VL: B1 VL with V15I, H49Y
B5: 4C10.20 IgG (antibody, V domains shown)
VH: B1 VH with R100P
VL: B1 VL with V15I, S30G, H49Y
B6: 4C10.8 IgG (antibody, V domains shown)
VH: B1 VH with R100P
VL: B1 VL with V15I, H49Y
B7: 4C10.18 IgG (antibody, V domains shown)
VH: B1 VH with V12A
VL: B1 VL with S30G, N92H, S93R
B8: 4C10.17 IgG (antibody, V domains shown)
VH: B1 VH
VL: B1 VL with T53S

The first experiment has as its target Botulinum neurotoxin mosaic BoNT/DC (Clostridium botulinum). The experiment in a line: range-finding KinExA, IgG. On the technique in general: In KinExA the mixture passes briefly over coated beads that capture the unbound partner.
By Kd is commonly meant the free concentration of one partner at which half of the binding sites on the other are occupied at equilibrium, for simple one-to-one binding. A high value points to a looser complex. Turning to B1, the Kd is 0.987 nM.

For B2, the dissociation constant (Kd) stood at 0.112 nM.

Regarding B3, the Kd was determined as 0.0904 nM.

B4 registered a Kd of 0.0604 nM.

Molecule B5 showed a dissociation constant (Kd) of 0.0166 nM.

The molecule B6 had a Kd of 0.0564 nM.

Regarding B7, the equilibrium dissociation constant (Kd) came to 0.109 nM.

Molecule B8 came in with a Kd of 0.766 nM.

For another experiment the target is unchanged. The experiment in a line: KinExA, IgG.
On to B1, for which the Kd is 0.987 nM.

Molecule B2 gave a Kd of 0.112 nM.

B3 gave a Kd of 0.0904 nM.

For the molecule B4, the Kd is 0.0604 nM.

Regarding B5, the Kd was 0.0166 nM.

As to B6, the Kd came out at 0.0564 nM.

In the case of B7, the Kd was found to be 0.109 nM.

B8 yielded a Kd of 0.766 nM.

Another experiment concerns the target T1, Botulinum neurotoxin serotype C (BoNT/C). The experiment in a line: range-finding KinExA, IgG.
As to B1, the Kd amounted to 0.0651 nM.

The molecule B2 showed a Kd of 0.0122 nM.

For B3, the Kd was 0.00665 nM.

In turn, B4 returned a Kd of 0.00192 nM.

In turn, B5 returned a Kd of 0.00102 nM.

On to B6, for which binding was characterised by a dissociation constant (Kd) of 0.0035 nM.

Consider B7, for which the affinity, expressed as Kd, was 0.0108 nM.

B8: the Kd turned out to be 0.0325 nM.

Another experiment has the same target. Briefly: KinExA, IgG.
Consider B1, for which the dissociation constant Kd worked out at 0.0651 nM.

Turning to B2, the dissociation constant Kd turned out to be 0.0122 nM.

Molecule B3 registered a Kd of 0.00665 nM.

Molecule B4 yielded a Kd of 0.00192 nM.

Regarding B5, the Kd was 0.00102 nM.

B6 showed a Kd of 0.0035 nM.

Molecule B7 came in with a Kd of 0.0108 nM.

Turning to B8, the Kd turned out to be 0.0325 nM.
